This test addresses DNA polymerase theta helicase domain (Polθ-hel, residues 1–894) (human), O75417. The test is described as follows: cryo-EM structure. The conditions noted are these: remark: other sources report otherwise.

Results on one molecule are retold here after PMC11324745.

B1: DNA polymerase theta helicase domain (Polθ-hel, residues 1–894), O75417 1-894 (domain or fragment)
chain: MNLLRRSGKRRRSESGSDSFSGSGGDSSASPQFLSGSVLSPPPGLGRCLKAAAAGECKPTVPDYERDKLLLANWGLPKAVLEKYHSFGVKKMFEWQAECLLLGQVLEGKNLVYSAPTSAGKTLVAELLILKRVLEMRKKALFILPFVSVAKEKKYYLQSLFQEVGIKVDGYMGSTSPSRHFSSLDIAVCTIERANGLINRLIEENKMDLLGMVVVDELHMLGDSHRGYLLELLLTKICYITRKSASCQADLASSLSNAVQIVGMSATLPNLELVASWLNAELYHTDFRPVPLLESVKVGNSIYDSSMKLVREFEPMLQVKGDEDHVVSLCYETICDNHSVLLFCPSKKWCEKLADIIAREFYNLHHQAEGLVKPSECPPVILEQKELLEVMDQLRRLPSGLDSVLQKTVPWGVAFHHAGLTFEERDIIEGAFRQGLIRVLAATSTLSSGVNLPARRVIIRTPIFGGRPLDILTYKQMVGRAGRKGVDTVGESILICKNSEKSKGIALLQGSLKPVRSCLQRREGEEVTGSMIRAILEIIVGGVASTSQDMHTYAACTFLAASMKEGKQGIQRNQESVQLGAIEACVMWLLENEFIQSTEASDGTEGKVYHPTHLGSATLSSSLSPADTLDIFADLQRAMKGFVLENDLHILYLVTPMFEDWTTIDWYRFFCLWEKLPTSMKRVAELVGVEEGFLARCVKGKVVARTERQHRQMAIHKRFFTSLVLLDLISEVPLREINQKYGCNRGQIQSLQQSAAVYAGMITVFSNRLGWHNMELLLSQFQKRLTFGIQRELCDLVRVSLLNAQRARVLYASGFHTVADLARANIVEVEVILKNAVPFKSARKAVDEEEEAVEERRNMRTIWVTGRKGLTEREAAALIVEEARMILQQDLVEM
Molecule B1 showed a percent of particles in the dimeric form of 95% and a percent of particles in the tetrameric form of 5%.
